Consider 1 molecule from patent publication US12006519B2, “Polymerase mutants and use with 3′-OH unblocked reversible terminators” (Agilent Technologies, Inc., priority 2021, dated 2024).

Format in all cases: biochemical
Assay [1] has as its system LTA-2. Nature of the assay: Template-independent incorporation of LTA-2, LTU-2, LTG-2, LTC-2 to priming strands. The procedure: The template-independent DNA synthesis reactions employed 7.5 U TdT (Promega) or 180 nM (3×over primer) Pfu26 (D141A/E143A/A486L/Y546H/K477W/L409Y) or Pfu48 (D141A/E143A/A486R/Y546H/K477W/L409Y). Varying concentrations of dATP were added to 2 μM (TdT) or 60 nM (Pfu) T7 FOR primer (6′Fam […]) (SEQ ID NO:6) in duplicate reactions containing 1×TdT buffer with CoCl2(Promega) or 1×ThermoPol buffer (NEB). Reactions were incubated for 30 min. at 37° C. (TdT) or 60° C. (Pfu), and then inactivated with heat (TdT; 10 min. at 70° C.) or EDTA (1 ul 500 uM EDTA). Reaction products were exposed to UV using a Stratalinker (15-watt bulbs, […], 10 min). Reactions were diluted in water (TdT, 1:333; Pfu, 1:10) and 1 μl (TdT) or 0.5 μl (Pfu) aliquots were brought up to 10 μl with HiDI/LIZ 120 Size Standard. Products were heated at 95° C. for 5 min., cooled on ice for 2 min., and then analyzed on an ABI 3500 capillary electrophoresis system ([…] capillary, filter set #5, assay=GE5 LIZ120).
In this example, primer extension was carried out with LTA-2 (FIG. 1F) as a Rp+Sp racemic mixture of α-thiotriphosphate, using the conditions described in Example 7.
In further experiments, single-base extension reactions (10 ul) were performed with an equimolar mixture (3 uM each) of two single-stranded oligommcleotides:
Both were labeled with Fam but distinguishable by their lengths using capillary electrophoresis. Primer extension reactions were performed using the following three Pfu mutants at a concentration of 18 nM polymerase: • Pfu10: Pfu polymerase with D141A/E143A/A486L/Y546H/K477W mutations (SEQ ID NO:2) • Pfu26: Pfu polymerase with D141A/E143A/A486L/Y546H/K477W/L409Y mutations (SEQ ID NO:4) • Pfu48: Pfu polymerase with D141A/E143A/A486R/Y546H/K477W/L409Y mutations (SEQ ID NO:5) The extension reactions also employed individual αS-modified LTs in Rp+Sp racemic mixture (namely, LTA-2, LTU-2, LTG-2, and LTC-2) at final concentrations of 5 uM. LTU-2, LTG-2, and LTC-2 are all C7 or C5-hydroxymethyl-a-tert-butyl-2-nitrobenzyl modified reversible terminators like LTA-2, with uracil, guanine, and cytosine in place of adenine. […] Reactions were incubated, stopped, UV-treated, and analyzed as described in Example 7.
(§1) Primer extensions were carried out in duplicate 25 ul reactions containing 7.5 U calf thymus TdT, 1×Promega TdT buffer (with CoCl2), varying concentrations of LTA-1 (100 uM, 50 uM, 10 uM, 5 uM, or 1 uM), and either 2 uM (FIG. 11A to 11C) or 80 nM (FIG. 11D to 11F) of a priming strand (Fam-labeled T7 F primer (6Fam […]), SEQ ID NO:8). Controls were performed without the addition of a polymerase. Primer extensions were also carried out in reactions containing the Pfu26 mutant polymerase, 60 nM of the priming strand, and various concentrations (10 μM or 5 μM or 1 μM) of LTA-1 or LTA-2.

The next assay concerns LTA-1. As to the kind of experiment: Template-independent incorporation of LTA-1 to a priming strand. The protocol: This example tested the addition of a 3′-OH unblocked reversible terminator (LTA-1, shown in FIG. 1E, or LTA-2, shown in FIG. 1F) to the 3′ end of a single-stranded priming strand. The extension reaction was performed with 2 uM or 80 nM of a priming strand and varying concentrations (100/50/10/5/1 μM) of the reversible terminator. The performance of the Pfu26 polymerase was compared to TdT polymerase.
as §1
Reactions were incubated at 37° C. for 30 min., and then heat-killed for 10 min. at 70° C. Reaction products were split in half, and one-half was treated with UV as described in Example 7. Reactions were then diluted 1:333 (2 uM primer) or 1:13 (80 nM primer) in water, and 0.5 ul portions were analyzed by capillary electrophoresis using the conditions provided in Example 7.

In assay [2] the test system is LTA-2. Nature of the assay: Multi-cycle template-independent addition of LTA-2 (TiEOS). Conditions: 7-deaza-7-hydroxymethyl-α-tert-butyl-2-nitrobenzyl modified LTA, 3 or 6 cycles. The protocol: This example tested the multi-cycle addition of a 3′-OH unblocked reversible terminator (LTA-2, shown in FIG. 1F) to the 3′ end of a single-stranded priming strand using the Pfu26 mutant polymerase. Single-base extension assays were performed as described in Example 7 using Pfu26 with modified LTA-2 that has a-tert-butyl substituted 2-nitrobenyl terminating group attached to 7-deaza-C7hydroxymethyl group. The modified LTA-2 optionally contains the αS triphosphate modification and HPLC-purified to isolate the Sp isomer (FIGS. 13A and 13C). At each incorporation cycle (3 cycles-FIGS. 13A&13B; 6 cycles-FIG. 13C), 1 ul was removed and saved on ice for ABI 3500 analysis. At each cycle, the remaining reaction volume was purified using MyOne T1 […] beads as follows (for the 3-cycle experiment). 127.5 ul of beads were washed 2×in 1 ml wash solution and resuspended in the original volume with the wash solution. A biotinylated, antisense T7 (underlined) primer with spacer (5′-CCCTATAGTGAGTCGTATACGGAGCATA-biotin) was added at a final concentration of 180 nM. The beads and capture oligo were mixed at 300 rpm for 30 min. at room temperature, washed 2×in 500 ul wash solution, and resuspended in 150 ul of the same. […] After purification (cycles 2-6), 2 ul of fresh enzyme/LTA mix was added, and the primer extensions were performed and analyzed as described above.

B1: Pfu26: Pfu D141A/E143A/A486L/Y546H/K477W/L409Y, SEQ ID NO:4 (protein)
chain: MILDVDYITEEGKPVIRLFKKENGKFKIEHDRTFRPYIYALLRDDSKIEEVKKITGERHGKIVRIVDVEKVEKKFLGKPITVWKLYLEHPQDVPTIREKVREHPAVVDIFEYDIPFAKRYLIDKGLIPMEGEEELKILAFAIATLYHEGEEFGKGPIIMISYADENEAKVITWKNIDLPYVEVVSSEREMIKRFLRIIREKDPDIIVTYNGDSFDFPYLAKRAEKLGIKLTIGRDGSEPKMQRIGDMTAVEVKGRIHFDLYHVITRTINLPTYTLEAVYEAIFGKPKEKVYADEIAKAWESGENLERVAKYSMEDAKATYELGKEFLPMEIQLSRLVGQPLWDVSRSSTGNLVEWFLLRKAYERNEVAPNKPSEEEYQRRLRESYTGGFVKEPEKGLWENIVYLDFRAYYPSIIITHNVSPDTLNLEGCKNYDIAPQVGHKFCKDIPGFIPSLLGHLLEERQKIKTKMKETQDPIEWILLDYRQKLIKLLANSFYGYYGYAKARWYCKECAESVTAWGRKYIELVWKELEEKFGFKVLYIDTDGLHATIPGGESEEIKKKALEFVKYINSKLPGLLELEYEGFYKRGFFVTKKRYAVIDEEGKVITRGLEIVRRDWSEIAKETQARVLETILKHGDVEEAVRIVKEVIQKLANYEIPPEKLAIYEQITRPLHEYKAIGPHVAVAKKLAAKGVKIKPGMVIGYIVLRGDGPISNRAILAEEYDPKKHKYDAEYYIENQVLPAVLRILEGFGYRKEDLRYQKTRQVGLTSWLNIKKS
modifications: Mutant of Pyrococcus furiosus Polymerase
With B1, the “Template-independent incorporation of LTA-2, LTU-2, LTG-2 and LTC-2 (in words)” value in the assay on LTA-2 [1] (18 nM polymerase, 5 uM terminators, CE2 and T7 oligonucleotides) is on record as “superior to Calf thymus Terminal Transferase (TdT)”. Further, in the assay with LTA-2 [1] (single-stranded priming strand), the “Template-independent incorporation of LTA-2 (in words)” value was “efficient incorporation and termination”. For the same molecule, the “Template-independent incorporation of LTA-1 (in words)” value with LTA-1 is recorded as “incorporate LTA-1 less efficiently”. Also, in the assay on LTA-2 [2], the “Multi-cycle addition of LTA-2 (in words)” value is reported as “did not generate an individual product with 100% efficiency after 2-3 rounds of TiEOS”.
